Data as given in the nanobody polyreactivity screen of Harvey et al. (2022).

Test: yeast display, Sf9 membrane polyspecificity reagent, FACS + sequencing; frameworks hold sequencing errors
In short: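 Using colony PCR, genes from sorted yeast display clones were amplified, then sequenced on MiSeq at 2 × 250 and filtered by CDR length. The clones had been stained with 10% biotinylated, detergent-solubilized Sf9 membrane reagent for 1 hour at 4 °C and sorted by FACS into low and high (top ~1%) gates on anti-HA and streptavidin fluorescence. Polyreactivity labels come from the gate of origin.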

Sequence	polyreactivity (PSR sort gate)
QVQLVESGGGLVQAGGSLRLSCAASGSTFYNYVMGWYRQAPGKERELVAAINWSGCRTYYADSVKGRFTISRDNAKNTVYLQMNSLKPEDTAVYYCAAGYTLPWYKGFDYWGQGTQVTVSS	high polyreactivity
QVQLVESGGGLVQAGGSLRLSCAASGSIFTGYAMGWYRQARGKESELVAAIDDSGDSTYYADSVKVRFTISRDNATNTVYLQMNSLKPEDTAVYYSKAEYRVNKEYDYWGQGTQVTVSS	low polyreactivity
QVQLVESGGGLVQAGGRLRLSCAASGRTFRYNAMGGSRQAPGKERELVAAISGGDSTYYADSEKGRFTFSRDNAKNTVYLQMNCLKPEDTAVYYCAGRTYRRRVSQSVSRNDYWGQGTQVTVSS	high polyreactivity
QVQLVESGGGLVQAGGSLRLSCAASGRTFWGYPMGWYRQAPGKERELVAAISSGGSTHYADSVKGRFTISRDNAKNTVYLQMNSLKPEDTAVYYCAAAVGYYAFGTYPFDDWPYDYWGQGTQVTVSS	high polyreactivity
QVQLVESGGGLVQAGGSLRLSCAASGSNIRSNAMGWYRQAPGKERELVAAISRTGGRTYYADSVKGRFTISRDNEKNTVYLQMKSLKPEYTAVYYCAASSSGSGGYWGQCTQVTVSS	high polyreactivity
QVQLVESGGGLVQAGGSLRLSCAASGRILVGYAMGRYRQAPGKERELVAAINRSGSSTYYADSVKGRFTISRDNAKNTVYLQRNSLNPEDTAVYYCNAPSGNRYGPRYDYWGQGTQVTVSS	high polyreactivity
QVQLQESGGGLVQAGGSLRLSCAASGNIFLGDTMGWYRQAPGKEREFVAGIARGGNPYYADSVKGRFTISRNNANNTVYLQKNSLKPEDTAVHYCAVQRSHASDYNYWGQGTQVTVSS	low polyreactivity
QVQLVESGGGLVQAGGSLRLSCAASGRIFYRYAMGWYRQAPGKERELVASITGRGGRTYYADSVKGRFTISRDNAKNSVYLHMNSLKPEDTEVYYCAADWGVHRPPYDSWGQGTQVTVSS	high polyreactivity
QVQLVESGGGLVQAGGSLRLSCAASGLIFLDYAMGWYRQAPGKERELVAAISRSGGRTYYADSVKGRFTISRDNAKNTVYLQMNSLKPEDTAVYYCAADGSRKSEIYDYWGQGTQVTVSS	high polyreactivity
QVQLVESGGGLDQAGGSLPLSCAASGRILQGYAMGWYRQAPGKEREMVASIRTGGTTNYADSVKGRFTISRDNAKNTVYLQMNSLKPEDTAVYYCNRGYDSYYGRYYYWGQGTQVTVSS	high polyreactivity
QVQLVESGGGLVQAGGSLRLSCAASGFTFFINGMGWYRQAPGKERELVAAIRSSGASTYDADSVKGRFTISRDNAKNTVYLQMNSLQPEDTAVYYCAVPLGAVGGPVDYWGQGTQVTVSS	low polyreactivity
QVQLVESGGGLVQAGGSLLLICAASGSTFYLNAMGWYRQAPGKERELVAAITGRSGSTYYADSVKVRFTISRDNAKNTVYLQMNSLKPEDTAVYYCAADYSPWRSDFDYWGQGTQVTVSS	low polyreactivity
QVQLVESGGGLVQAGGSLRLSCAASGRIFYKSAMGWSRQAPGKEREWVAAITTSGGSTYYADSVKGRFTISRDNAKNTVYLQMNSLKPEDTAVYYCAARSAYGTQRLYYWGQGTQVTVSS	high polyreactivity
QVQLVESGGGLVQAGGSLRLSCAASGRIFEHYAMGWYRQAPGKERELVAAITVSGGSTYYADSVKGRFTISRDNAKNTVYLQMNSLKPEDTAVYYCNADQRDYGSYVTKLDYWGQGTQVTVSS	low polyreactivity
QVQLVESGGGLVQAGGSLRLSCAASGSISVYNAMGWYRQAPGKERELVAAISWSGGRTSYADSVKGRFTISRDNAKNTVYLQMNSLKPEDTAVYYCAADELTVLWDEDYWGQGTQVTVSS	low polyreactivity
QVQLVESGGGLVQAGGSLRLSCAASAFTFQNYAMGWYRQAPGKERELVAAIDSRGGRTYYADSVKGRFTISRDNAKNTVYLQMNSLKPEDTADDYCAVAENSRFGSVGYYYWGQGTQVTVSS	low polyreactivity
QVQLVESGGGLVQAGGSLRLSCAPSGRIIRPYAKGWYIQAPGKERELVAAISVSGVITYYADSVKGRFTISRDNAKNTVYLQMNSLKPEDTAVYYCATDYTRRRWGRLYDYWGQGTQVTVSS	low polyreactivity
QDQLVESGGGLVQAGGSLRLSCAASGTIFRGYTMGWYRQAPGKERELVAAISSSGGRTHYADSVKGRFTISRDNAKNTVYLQMNSLKPEDSAVYYCAADYYRTPKSGSSGLDYWGQGTQVTLSS	low polyreactivity
QVQLVESGGGLVQAGGSLRLSCAASGRIFQIYAMGWYRQAPGKERELVAAISNRGGSTYYADSVKGRFTISRDNAKNTVYLQMNSLKPEDTAVYYCNATTGYGGYNYWGQGTQVTVSS	low polyreactivity
QVQLVESGGGLVQAGGSLRLSCAASGRIFKTYAMGWYRQAPGKERELVAAITASGGRTYDADSVKGRFTISRDNAKNTVYLQMNSLTPEDTAVYYSAAPLLRDLRSPYSYNYWGQGTQVTVSS	low polyreactivity
